Key:
[1] = biological target: T1, PglC from H. pullorum (PglC (H. pu)) (Helicobacter pullorum, UniProt E1B268); test: UMP-Glo luminescence (UMP release), time course; format: biochemical; details: 20 μM UDP-GlcNAc; 20 μM Und-P; 0.3 μM enzyme; 5 mM MgCl2; pH 7.5; 0.1% Triton X-100; 10% DMSO
T1 construct: N-terminal His6-SUMO tag, tag cleavage not mentioned; E. coli BL21-RIL; DDM-solubilized membrane fraction, Ni-NTA

[2] = system: CC(=O)N[C@H]1[C@@H](OP(=O)(O)OP(=O)(O)OC[C@H]2O[C@@H](n3ccc(=O)[nH]c3=O)[C@H](O)[C@@H]2O)O[C@H](C)[C@@H](NC(C)=O)[C@@H]1O; test: purified protein; details: 60 μM Und-P, 5 mM MgCl2, pH 7.5, room temperature, 0.1% Triton X-100, 10% DMSO
[3] = system: CC(C)=CCC/C(C)=C/CC/C(C)=C/CC/C(C)=C\CC/C(C)=C\CC/C(C)=C\CC/C(C)=C\CC/C(C)=C\CC/C(C)=C\CC/C(C)=C\CC/C(C)=C\COP(=O)(O)O; test: purified protein; details: 80 μM UDP-diNAcBac, 5 mM MgCl2, pH 7.5, room temperature, 0.1% Triton X-100, 10% DMSO

T1 sequence (E1B268 entry or part of it): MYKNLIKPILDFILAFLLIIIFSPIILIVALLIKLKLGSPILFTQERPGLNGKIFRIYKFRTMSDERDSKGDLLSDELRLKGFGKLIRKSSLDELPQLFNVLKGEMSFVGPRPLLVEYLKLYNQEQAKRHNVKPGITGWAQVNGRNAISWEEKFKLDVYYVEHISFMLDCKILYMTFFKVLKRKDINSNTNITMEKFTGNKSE

Compound | UMP-Glo luminescence (UMP release), time course [1] | Km [2] [µM] | kcat [2] [s⁻¹] | Km [3] [µM] | kcat [3] [s⁻¹]
CC(=O)N[C@H]1[C@@H](OP(=O)(O)OP(=O)(O)OC[C@H]2O[C@@H](n3ccc(=O)[nH]c3=O)[C@H](O)[C@@H]2O)O[C@H](CO)[C@@H](O)[C@@H]1O [UDP-GlcNAc] | demonstrates that the H. pullorum PglC catalyzes turnover of these substrates | – | – | – | –
CC(C)=CCC/C(C)=C/CC/C(C)=C/CC/C(C)=C\CC/C(C)=C\CC/C(C)=C\CC/C(C)=C\CC/C(C)=C\CC/C(C)=C\CC/C(C)=C\CC/C(C)=C\COP(=O)(O)O [Und-P] | demonstrates that the H. pullorum PglC catalyzes turnover of these substrates | – | – | – | –
PglC from Campylobacter jejuni (SUMO-PglC) (Campylobacter jejuni subsp. jejuni NCTC 11168 = ATCC 700819) | – | 24.61 ± 3.30 | 5.67 ± 0.333 | 7.18 ± 1.37 | 5.17 ± 0.333

From publication PMC5022061, “A Rapid and Efficient Luminescence-based Method for Assaying Phosphoglycosyltransferase Enzymes” (Scientific Reports, 2016)
